{"source": "patent US20260092093A1", "key": {"hIL-18BP-hFc (human)": {"target": "hIL-18BP-hFc (human) (UniProt O95998)", "sequence (O95998 31-194 limits assumed)": "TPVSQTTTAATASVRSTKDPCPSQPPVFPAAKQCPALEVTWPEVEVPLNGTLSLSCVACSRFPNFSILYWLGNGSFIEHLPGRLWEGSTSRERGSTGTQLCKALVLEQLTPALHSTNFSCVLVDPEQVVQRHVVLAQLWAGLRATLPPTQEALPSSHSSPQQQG", "test": "cell-based or functional assay"}, "[1]": {"target": "T1, hIL-18 receptor (hIL-18Rα and hIL-18Rβ) (human) (UniProt Q13478)", "T1 sequence (looked up) 1": "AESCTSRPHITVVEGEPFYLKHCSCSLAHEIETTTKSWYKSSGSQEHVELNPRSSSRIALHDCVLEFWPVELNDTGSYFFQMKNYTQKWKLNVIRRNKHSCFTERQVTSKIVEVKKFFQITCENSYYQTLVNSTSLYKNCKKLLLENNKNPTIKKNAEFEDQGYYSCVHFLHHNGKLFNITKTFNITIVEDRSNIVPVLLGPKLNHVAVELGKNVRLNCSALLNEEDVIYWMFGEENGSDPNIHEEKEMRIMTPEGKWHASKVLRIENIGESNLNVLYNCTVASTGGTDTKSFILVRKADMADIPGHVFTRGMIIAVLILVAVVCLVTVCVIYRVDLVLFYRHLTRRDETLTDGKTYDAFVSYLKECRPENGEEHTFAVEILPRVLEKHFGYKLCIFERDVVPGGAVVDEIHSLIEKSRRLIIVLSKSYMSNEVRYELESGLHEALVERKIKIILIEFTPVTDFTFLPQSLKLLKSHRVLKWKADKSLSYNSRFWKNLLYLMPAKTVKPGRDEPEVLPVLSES", "T1 sequence (looked up) 2": "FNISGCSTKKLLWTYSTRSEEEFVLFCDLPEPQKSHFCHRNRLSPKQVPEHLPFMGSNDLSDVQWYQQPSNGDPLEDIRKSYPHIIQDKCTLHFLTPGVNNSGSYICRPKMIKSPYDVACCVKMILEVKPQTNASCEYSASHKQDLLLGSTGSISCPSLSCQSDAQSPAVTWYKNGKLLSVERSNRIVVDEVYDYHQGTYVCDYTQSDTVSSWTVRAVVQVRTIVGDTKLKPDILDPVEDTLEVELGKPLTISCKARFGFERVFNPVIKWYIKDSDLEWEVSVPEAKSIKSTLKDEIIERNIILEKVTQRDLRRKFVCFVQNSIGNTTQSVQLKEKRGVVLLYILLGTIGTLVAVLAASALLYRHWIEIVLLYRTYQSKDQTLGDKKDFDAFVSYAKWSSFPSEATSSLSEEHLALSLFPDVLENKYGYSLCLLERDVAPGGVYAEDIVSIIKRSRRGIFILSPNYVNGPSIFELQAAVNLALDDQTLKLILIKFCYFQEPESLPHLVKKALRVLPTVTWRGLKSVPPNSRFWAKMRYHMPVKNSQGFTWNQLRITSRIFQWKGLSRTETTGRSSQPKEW", "test": "cell-based or functional assay"}}, "data": [{"substance": "wild-type human IL-18 (from UniProt Q14116 37-193) (ligand)", "values": [{"measurement": "EC50 (nM) + 1 µg/ml hIL-18BP-hFc, in vitro IL-18 Receptor Mediated Signaling Assay", "setting": "hIL-18BP-hFc (human)", "result": 8.2, "unit": "nM"}, {"measurement": "EC50 (nM) in the Presence of 1 µg/mL hIL-18BP-hFc, PBMC assay (hIFNγ release)", "setting": "hIL-18BP-hFc (human)", "result": 5.9, "unit": "nM"}, {"measurement": "EC50 Fold Change (+BP/-BP), PBMC assay (hIFNγ release)", "setting": "hIL-18BP-hFc (human)", "result": 34.7, "unit": "fold"}, {"measurement": "EC50 Fold Change (+BP/-BP), hIL-18 reporter assay", "setting": "hIL-18BP-hFc (human)", "result": 83.3, "unit": "fold"}, {"measurement": "EC50 (nM), PBMC assay (hIFNγ release)", "setting": "[1]", "result": 0.17, "unit": "nM"}, {"measurement": "EC50 (nM), in vitro IL-18 Receptor Mediated Signaling Assay", "setting": "[1]", "result": 0.066, "unit": "nM"}]}]}
